Experimental data as given in patent US20240425837A1 (Novo Nordisk, published 2024).
No end group written: not given here.

What was measured:
Assay in all cases: ELISA, biotinylated 12-mer peptide on streptavidin, 2 ug/mL FLAG-tagged VHH, anti-FLAG-HRP
[1] = molecular target: T1, FX activation peptide 12-mer PYDAADLDPTEN (SEQ ID NO:712) (human)
T1 peptide: PYDAADLDPTEN-biotin
Protocol: (§1) To determine whether the binding epitope of the anti-FX VHH polypeptide designated “cmpd #1” are located inside the activation peptide (AP) of human FX (SEQ ID NO:2), an ELISA assay was setup. 41 unique 12-mer peptide fragments spanning the 52 residues of the activation peptide with one amino acid spacing were immobilized in microtiter plate wells followed by incubation with the VHH polypeptide to be tested, and detection of bound ligand was performed by addition of a secondary HRP-labelled antibody.
(§2) The peptides were C-terminally conjugated to biotin and 50 μL of 1 μg/mL peptide solution was used for immobilization in discrete wells of the microtiter plate which was pre-coated with 1 μg/mL streptavidin. Each well was washed with washing buffer (10 mM Tris, 150 mM NaCl, 2.5 mM CaCl₂, 0.05% Tween 20, pH 8.60) followed by addition of 50 μL of 2 μg/mL FLAG-tagged anti-FX VHH polypeptide or IgG antibody to be tested. After 1 hour non-bound VHH polypeptide was washed off using washing buffer.
(§3) Bound anti-FX activation peptide ligand was detected by first binding a HRP-labelled secondary antibody (for FLAG-tagged VHH polypeptide: Anti-FLAG mAb M2-Peroxidase (HRP) (Sigma Aldrich, US) for 1 hour, and then adding 100 μL TMB-1 ELISA substrate (Kem-En-Tec Diagnostics, Denmark).

[2] = molecular target: T2, FX activation peptide 12-mer KPYDAADLDPTE (SEQ ID NO:711) (human)
T2 peptide: KPYDAADLDPTE-biotin
Protocol: as §1, §2, §3

[3] = molecular target: T3, FX activation peptide 12-mer FDLLDFNQTQPE (SEQ ID NO:725) (human)
T3 peptide: FDLLDFNQTQPE-biotin
Protocol: as §1, §2, §3

[4] = molecular target: T4, FX activation peptide 12-mer QTQPERGDNNLT (SEQ ID NO:732) (human)
T4 peptide: QTQPERGDNNLT-biotin
Protocol: as §1, §2, §3

[5] = molecular target: T5, FX activation peptide 12-mer DAADLDPTENPF (SEQ ID NO:714) (human)
T5 peptide: DAADLDPTENPF-biotin
Protocol: as §1, §2, §3

[6] = molecular target: T6, FX activation peptide 12-mer SSGEAPDSITWK (SEQ ID NO:700) (human)
T6 peptide: SSGEAPDSITWK-biotin
Protocol: as §1, §2, §3

[7] = molecular target: T7, FX activation peptide 12-mer AADLDPTENPFD (SEQ ID NO:715) (human)
T7 peptide: AADLDPTENPFD-biotin
Protocol: as §1, §2, §3

[8] = molecular target: T8, FX activation peptide 12-mer PFDLLDFNQTQP (SEQ ID NO:724) (human)
T8 peptide: PFDLLDFNQTQP-biotin
Protocol: as §1, §2, §3

[9] = molecular target: T9, FX activation peptide 12-mer SITWKPYDAADL (SEQ ID NO:707) (human)
T9 peptide: SITWKPYDAADL-biotin
Protocol: as §1, §2, §3

[10] = molecular target: T10, FX activation peptide 12-mer ADLDPTENPFDL (SEQ ID NO:716) (human)
T10 peptide: ADLDPTENPFDL-biotin
Protocol: as §1, §2, §3

[11] = molecular target: T11, FX activation peptide 12-mer FNQTQPERGDNN (SEQ ID NO:730) (human)
T11 peptide: FNQTQPERGDNN-biotin
Protocol: as §1, §2, §3

[12] = molecular target: T12, FX activation peptide 12-mer VAQATSSSGEAP (SEQ ID NO:694) (human)
T12 peptide: VAQATSSSGEAP-biotin
Protocol: as §1, §2, §3

[13] = molecular target: T13, FX activation peptide 12-mer APDSITWKPYDA (SEQ ID NO:704) (human)
T13 peptide: APDSITWKPYDA-biotin
Protocol: as §1, §2, §3

[14] = molecular target: T14, FX activation peptide 12-mer ITWKPYDAADLD (SEQ ID NO:708) (human)
T14 peptide: ITWKPYDAADLD-biotin
Protocol: as §1, §2, §3

[15] = molecular target: T15, FX activation peptide 12-mer PDSITWKPYDAA (SEQ ID NO:705) (human)
T15 peptide: PDSITWKPYDAA-biotin
Protocol: as §1, §2, §3

[16] = molecular target: T16, FX activation peptide 12-mer AQATSSSGEAPD (SEQ ID NO:695) (human)
T16 peptide: AQATSSSGEAPD-biotin
Protocol: as §1, §2, §3

[17] = molecular target: T17, FX activation peptide 12-mer YDAADLDPTENP (SEQ ID NO:713) (human)
T17 peptide: YDAADLDPTENP-biotin
Protocol: as §1, §2, §3

[18] = molecular target: T18, FX activation peptide 12-mer WKPYDAADLDPT (SEQ ID NO:710) (human)
T18 peptide: WKPYDAADLDPT-biotin
Protocol: as §1, §2, §3

ELISA signal normalized relative to the background signal [1]: 0.83 fold of background
ELISA signal normalized relative to the background signal [2]: 0.8 fold of background
ELISA signal normalized relative to the background signal [3]: 4.38 fold of background
ELISA signal normalized relative to the background signal [5]: 0.88 fold of background
ELISA signal normalized relative to the background signal [6]: 0.88 fold of background
ELISA signal normalized relative to the background signal [7]: 0.88 fold of background
ELISA signal normalized relative to the background signal [8]: 4.95 fold of background
ELISA signal normalized relative to the background signal [9]: 1.08 fold of background
ELISA signal normalized relative to the background signal [10]: 0.91 fold of background
ELISA signal normalized relative to the background signal [11]: 1 fold of background
ELISA signal normalized relative to the background signal [12]: 1.02 fold of background
ELISA signal normalized relative to the background signal [13]: 1.06 fold of background
ELISA signal normalized relative to the background signal [14]: 1.1 fold of background
ELISA signal normalized relative to the background signal [15]: 1.05 fold of background
ELISA signal normalized relative to the background signal [16]: 0.97 fold of background
ELISA signal normalized relative to the background signal [17]: 0.87 fold of background
ELISA signal normalized relative to the background signal [18]: 0.89 fold of background
B1: Cmpd #1 (monovalent anti-FX VHH polypeptide, VHH-1.1) (VHH)
VHH: EVQLVESGGGLVQPGGSLRLSCAASGSIGAFDAMGWYRQAPGKQRELVAGIMVSRGNTNYTDSVKGRFTISRDNAKNTVYLQMNSLKPEDTAVYYCKAVKRPGPGYLEVWGQGTLVTVSS
notes: no protractor; FLAG-tagged in the peptide ELISA
ELISA signal normalized relative to the background signal [4]: 0.88 fold of background
